Experimental data reported in article PMC4623810.

B1: full-length SHP2 (recombinant) (enzyme)
chain: MTSRRWFHPNITGVEAENLLLTRGVDGSFLARPSKSNPGDFTLSVRRNGAVTHIKIQNTGDYYDLYGGEKFATLAELVQYYMEHHGQLKEKNGDVIELKYPLNCADPTSERWFHGHLSGKEAEKLLTEKGKHGSFLVRESQSHPGDFVLSVRTGDDKGESNDGKSKVTHVMIRCQELKYDVGGGERFDSLTDLVEHYKKNPMVETLGTVLQLKQPLNTTRINAAEIESRVRELSKLAETTDKVKQGFWEEFETLQQQECKLLYSRKEGQRQENKNKNRYKNILPFDHTRVVLHDGDPNEPVSDYINANIIMPEFETKCNNSKPKKSYIATQGCLQNTVNDFWRMVFQENSRVIVMTTKEVERGKSKCVKYWPDEYALKEYGVMRVRNVKESAAHDYTLRELKLSKVGQGNTERTVWQYHFRTWPDHGVPSDPGGVLDFLEEVHHKQESIMDAGPVVVHCSAGIGRTGTFIVIDILIDIIREKGVDCDIDVPKTIQMVRSQRSGMVQTEAQYRFIYMAVQHYIETLQRRIEEEQKSKRKGHEYTNIKYSLADQTSGDQSPLPPCTPTPPCAEMREDSARVYENVGLMQQQKSFR
B2: SHP2/SH2 (recombinant N-terminal SHP2 fragment containing two SH2 domains, analyte of the SPR) (domain or fragment)
chain: MTSRRWFHPNITGVEAENLLLTRGVDGSFLARPSKSNPGDFTLSVRRNGAVTHIKIQNTGDYYDLYGGEKFATLAELVQYYMEHHGQLKEKNGDVIELKYPLNCADPTSERWFHGHLSGKEAEKLLTEKGKHGSFLVRESQSHPGDFVLSVRTGDDKGESNDGKSKVTHVMIRCQELKYDVGGGERFDSLTDLVEHYKKNPMVETLGTVLQLKQPLNTTR

What was measured:
Experiment in all cases: SPR; Biacore X100; CagA immobilised on CM5 chip by amine coupling, SHP2 or SHP2/SH2 as analyte; KD from Scatchard plots; three independent measurements
[1] = target: pY-CagA(C2)-His (tyrosine-phosphorylated Western CagA with two EPIYA-C segments) (Helicobacter pylori)
[2] = target: pY-CagA(C1)-His (tyrosine-phosphorylated Western CagA with one EPIYA-C segment) (Helicobacter pylori)
[3] = target: pY-CagA(C3)-His (tyrosine-phosphorylated Western CagA with three EPIYA-C segments) (Helicobacter pylori)
[4] = target: pY-CagA(C5)-His (tyrosine-phosphorylated Western CagA with five EPIYA-C segments) (Helicobacter pylori)
[5] = target: pY-CagA(C8)-His (tyrosine-phosphorylated Western CagA with eight EPIYA-C segments) (Helicobacter pylori)

Binder | Kd [1] | Kd [2] | Kd [3] | Kd [4] | Kd [5]
B1 | 369 nM | – | – | – | –
B2 | 208 nM | 24.1 µM | 123 nM | 77.8 nM | 40.1 nM
